Test results from patent US11510992.

What was measured:
[1] = biological target: neuraminidase of influenza B/Malaysia/2506/2004 (Victoria) (influenza B virus B/Malaysia/2506/2004 (Victoria)); experiment: cell-based or functional assay
[2] = biological target: neuraminidase of influenza A/HK/1/1968 (H3N2) (influenza A virus A/HK/1/1968 (H3N2)) (UniProt Q91MA2); experiment: cell-based or functional assay
[3] = biological target: neuraminidase of influenza A/CA/07/2009 (H1N1)pdm (influenza A virus A/CA/07/2009 (H1N1)pdm); experiment: cell-based or functional assay
[4] = biological target: Neuraminidase of influenza B/Phuket/3073/2013 (Yamagata) (influenza B virus B/Phuket/3073/2013 (Yamagata)); experiment: cell-based or functional assay
[5] = biological target: Neuraminidase of influenza A/Hong Kong/2671/2019 (H3N2) (influenza A virus A/Hong Kong/2671/2019 (H3N2)); experiment: cell-based or functional assay
[6] = biological target: Neuraminidase of influenza A/Hawaii/70/2019 (H1N1pdm09) (influenza A virus A/Hawaii/70/2019 (H1N1pdm09)); experiment: cell-based or functional assay
[7] = biological target: Neuraminidase of influenza B/Washington/02/2019 (Victoria) (influenza B virus B/Washington/02/2019 (Victoria)); experiment: cell-based or functional assay
[8] = biological target: cynomolgus monkey FcRn (cynomolgus monkey) (UniProt Q8SPV9); experiment: pH 5.8
[9] = biological target: mouse FcRn (mouse) (UniProt Q61559); experiment: pH 5.8
[10] = biological target: human FcRn (human) (UniProt P55899); experiment: pH 5.8
[11] = biological target: rat FcRn (rat) (UniProt P13599); experiment: pH 5.8
[12] = biological target: mouse FcγR1/CD64 (mouse) (UniProt P26151)
[13] = biological target: rat FcγR3A/CD16a (rat) (UniProt Q6XPU4)
[14] = biological target: rat FcγR2B/CD32b (rat) (UniProt Q63203)
[15] = biological target: human FcγR1/CD64 (human) (UniProt P12314)
[16] = biological target: rat FcγR1/CD64 (rat)
[17] = biological target: human FcγR2A/CD32a (R167) (human) (UniProt P12318)
[18] = biological target: cynomolgus monkey FcγR2A/CD32a (cynomolgus monkey)
[19] = biological target: cynomolgus monkey FcγR1/CD64 (cynomolgus monkey)
[20] = biological target: rat FcγR2A/CD32a (rat)
[21] = biological target: mouse FcγR2B/CD32b (mouse) (UniProt P08101)
[22] = biological target: cynomolgus monkey FcγR2B/CD32b (cynomolgus monkey)
[23] = biological target: cynomolgus monkey FcRn (cynomolgus monkey) (UniProt Q8SPV9); experiment: pH 7.4
[24] = biological target: mouse FcRn (mouse) (UniProt Q61559); experiment: pH 7.4

Sequence of mouse FcRn (mouse) (Q61559 22-297 limits assumed, form in doubt, chain 1 of 2): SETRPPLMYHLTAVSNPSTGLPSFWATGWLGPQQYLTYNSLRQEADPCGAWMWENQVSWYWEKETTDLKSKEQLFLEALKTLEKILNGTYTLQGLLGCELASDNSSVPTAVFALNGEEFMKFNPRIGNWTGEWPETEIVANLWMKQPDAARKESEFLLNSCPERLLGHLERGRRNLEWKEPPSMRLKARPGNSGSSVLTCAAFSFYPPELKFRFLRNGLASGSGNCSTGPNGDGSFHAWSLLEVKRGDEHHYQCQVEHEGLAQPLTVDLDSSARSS
Sequence of mouse FcRn (mouse) (chain, as listed by the source limits assumed, form in doubt, chain 2 of 2): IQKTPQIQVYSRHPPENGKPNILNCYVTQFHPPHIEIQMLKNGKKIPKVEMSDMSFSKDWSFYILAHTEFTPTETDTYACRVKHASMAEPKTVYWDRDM
Sequence of rat FcγR2B/CD32b (rat) (Q63203 32-212): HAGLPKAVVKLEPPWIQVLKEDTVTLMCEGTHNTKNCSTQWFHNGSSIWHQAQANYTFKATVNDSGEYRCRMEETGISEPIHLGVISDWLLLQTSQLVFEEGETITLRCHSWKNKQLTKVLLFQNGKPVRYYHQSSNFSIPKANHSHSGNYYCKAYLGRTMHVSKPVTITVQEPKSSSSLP
Sequence of human FcγR2A/CD32a (R167) (human) (P12318 36-218 H167R): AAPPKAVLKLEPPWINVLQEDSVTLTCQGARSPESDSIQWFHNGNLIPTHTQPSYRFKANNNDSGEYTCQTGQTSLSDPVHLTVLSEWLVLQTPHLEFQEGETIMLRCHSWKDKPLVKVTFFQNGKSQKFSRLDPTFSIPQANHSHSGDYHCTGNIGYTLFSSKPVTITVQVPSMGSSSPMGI
Sequence of rat FcRn (rat) (P13599 23-298 limits assumed, form in doubt, chain 1 of 2): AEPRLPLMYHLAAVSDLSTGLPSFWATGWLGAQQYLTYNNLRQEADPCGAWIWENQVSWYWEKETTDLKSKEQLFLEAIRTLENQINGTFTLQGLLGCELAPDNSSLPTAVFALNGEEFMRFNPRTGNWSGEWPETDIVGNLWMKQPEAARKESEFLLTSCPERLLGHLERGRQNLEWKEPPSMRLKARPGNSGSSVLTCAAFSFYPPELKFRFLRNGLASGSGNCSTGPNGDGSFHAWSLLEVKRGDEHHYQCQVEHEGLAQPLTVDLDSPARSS
Sequence of rat FcRn (rat) (chain, as listed by the source limits assumed, form in doubt, chain 2 of 2): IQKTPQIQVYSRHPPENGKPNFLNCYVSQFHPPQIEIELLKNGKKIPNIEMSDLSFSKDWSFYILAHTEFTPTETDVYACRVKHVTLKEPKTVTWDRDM
Sequence of mouse FcγR2B/CD32b (mouse) (P08101 30-210): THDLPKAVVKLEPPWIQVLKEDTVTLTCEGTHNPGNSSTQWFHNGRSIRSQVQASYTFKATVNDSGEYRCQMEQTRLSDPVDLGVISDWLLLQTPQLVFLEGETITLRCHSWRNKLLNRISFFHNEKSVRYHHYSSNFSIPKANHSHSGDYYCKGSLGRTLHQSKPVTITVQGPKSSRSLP
Sequence of mouse FcγR1/CD64 (mouse) (P26151 25-297 limits assumed): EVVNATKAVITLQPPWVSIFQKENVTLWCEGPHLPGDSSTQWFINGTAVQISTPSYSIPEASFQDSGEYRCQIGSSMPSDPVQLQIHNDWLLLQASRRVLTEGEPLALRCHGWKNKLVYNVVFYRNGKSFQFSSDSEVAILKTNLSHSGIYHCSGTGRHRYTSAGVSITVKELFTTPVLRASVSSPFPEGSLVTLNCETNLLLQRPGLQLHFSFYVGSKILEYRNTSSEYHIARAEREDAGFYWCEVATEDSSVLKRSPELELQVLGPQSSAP
Sequence of rat FcγR3A/CD16a (rat) (Q6XPU4 21-203 limits assumed): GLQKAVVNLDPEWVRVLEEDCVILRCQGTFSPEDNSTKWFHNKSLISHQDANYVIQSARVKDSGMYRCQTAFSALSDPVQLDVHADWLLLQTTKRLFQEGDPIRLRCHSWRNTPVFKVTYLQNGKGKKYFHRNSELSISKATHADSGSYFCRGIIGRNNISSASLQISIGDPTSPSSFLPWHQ
Sequence of human FcγR1/CD64 (human) (P12314 16-288 limits assumed): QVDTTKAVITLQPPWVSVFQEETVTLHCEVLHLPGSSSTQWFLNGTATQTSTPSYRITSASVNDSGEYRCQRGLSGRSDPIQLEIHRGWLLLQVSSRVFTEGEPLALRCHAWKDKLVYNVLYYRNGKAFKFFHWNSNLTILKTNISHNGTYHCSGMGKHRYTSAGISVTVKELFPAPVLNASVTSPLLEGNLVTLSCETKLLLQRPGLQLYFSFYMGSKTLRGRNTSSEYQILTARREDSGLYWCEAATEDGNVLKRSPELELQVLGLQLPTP
Sequence of human FcRn (human) (P55899 24-297 limits assumed, form in doubt, chain 1 of 2): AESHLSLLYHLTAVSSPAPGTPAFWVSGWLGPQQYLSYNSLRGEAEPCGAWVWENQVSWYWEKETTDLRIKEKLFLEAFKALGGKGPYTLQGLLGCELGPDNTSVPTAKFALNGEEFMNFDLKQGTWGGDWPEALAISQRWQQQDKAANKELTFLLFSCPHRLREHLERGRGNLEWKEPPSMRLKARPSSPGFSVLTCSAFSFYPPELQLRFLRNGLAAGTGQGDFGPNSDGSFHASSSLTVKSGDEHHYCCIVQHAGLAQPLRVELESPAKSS
Sequence of human FcRn (human) (chain, as listed by the source limits assumed, form in doubt, chain 2 of 2): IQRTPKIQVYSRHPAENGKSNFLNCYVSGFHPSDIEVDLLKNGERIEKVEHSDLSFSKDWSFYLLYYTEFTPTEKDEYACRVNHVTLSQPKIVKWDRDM

Question: What does the source list for “Fc alone (SEQ ID NO: 73) (from UniProt P0DOX5 203-448)”?
Answer: ADCP (fold induction), reporter cells on MDCK cells, MOI 0 (fold induction) [1]: 1.07; ADCP (fold induction), reporter cells on infected MDCK cells, MOI 0.1 (fold induction) [1]: 0.98; ADCP (fold induction), reporter cells on infected MDCK cells, MOI 0.3 (fold induction) [1]: 0.99; ADCP (fold induction), reporter cells on infected MDCK cells, MOI 1 (fold induction) [1]: 1.14; ADCP (fold induction), reporter cells on infected MDCK cells, MOI 3 (fold induction) [1]: 1.11; ADCP (fold induction), reporter cells on infected MDCK cells, MOI 10 (fold induction) [1]: 1; ADCP (fold induction), reporter cells on MDCK cells, MOI 0 (fold induction) [2]: 1.02; ADCP (fold induction), reporter cells on infected MDCK cells, MOI 0.1 (fold induction) [2]: 1.07; ADCP (fold induction), reporter cells on infected MDCK cells, MOI 0.3 (fold induction) [2]: 1.05; ADCP (fold induction), reporter cells on infected MDCK cells, MOI 1 (fold induction) [2]: 1.18; ADCP (fold induction), reporter cells on infected MDCK cells, MOI 3 (fold induction) [2]: 1.01; ADCP (fold induction), reporter cells on infected MDCK cells, MOI 10 (fold induction) [2]: 1.06; ADCP (fold induction), reporter cells on MDCK cells, MOI 0 (fold induction) [3]: 0.98; ADCP (fold induction), reporter cells on infected MDCK cells, MOI 0.1 (fold induction) [3]: 1.14; ADCP (fold induction), reporter cells on infected MDCK cells, MOI 0.3 (fold induction) [3]: 1.03; ADCP (fold induction), reporter cells on infected MDCK cells, MOI 1 (fold induction) [3]: 0.99; ADCP (fold induction), reporter cells on infected MDCK cells, MOI 3 (fold induction) [3]: 0.93; ADCP (fold induction), reporter cells on infected MDCK cells, MOI 10 (fold induction) [3]: 1.05

Question: With hIgG1 Fc (from UniProt P01857 84-329) as the substance, how does the IC50, enzyme-linked lectin assay (ELLA), fetuin substrate, live virus [4] read?
Answer: Its IC50, enzyme-linked lectin assay (ELLA), fetuin substrate, live virus is over 1000 nM.

Question: What about the IC50, enzyme-linked lectin assay (ELLA), fetuin substrate, live virus [5] of the same substance?
Answer: The IC50, enzyme-linked lectin assay (ELLA), fetuin substrate, live virus was over 1000 nM.

Question: What about the IC50, enzyme-linked lectin assay (ELLA), fetuin substrate, live virus [6] of the same substance?
Answer: Its IC50, enzyme-linked lectin assay (ELLA), fetuin substrate, live virus is over 1000 nM.

Question: What about the IC50, enzyme-linked lectin assay (ELLA), fetuin substrate, live virus [7] of the same substance?
Answer: Its IC50, enzyme-linked lectin assay (ELLA), fetuin substrate, live virus is over 1000 nM.

Question: Which results are given for human IgG1 isotype control antibody?
Answer: EC50 [8]: 28 nM; EC50 [9]: 5 nM; EC50 [10]: 44 nM; EC50 [11]: 13 nM; EC50 [12]: 3 nM; EC50 [13]: 0.008 nM; EC50 [14]: 208 nM; EC50 [15]: 7 nM; EC50 [16]: 2 nM; EC50 [17]: 144 nM; EC50 [18]: 693 nM; EC50 [19]: 0.37 nM; EC50 [20]: 1 nM; EC50 [21]: 153 nM; EC50 [22]: 1 nM; EC50 [23]: 78 nM; EC50 [24]: 40 nM
